One block for each binder: values may come before it. Where no end group is shown, it is not given here. Me3 = trimethyl (trimethylated lysine)
Tests used:
[1] = target: T1, MORF PHD1/2 fingers (aa 211-329) (human, UniProt Q8WYB5-3 211-329); assay: NMR titration
T1 sequence (looked up): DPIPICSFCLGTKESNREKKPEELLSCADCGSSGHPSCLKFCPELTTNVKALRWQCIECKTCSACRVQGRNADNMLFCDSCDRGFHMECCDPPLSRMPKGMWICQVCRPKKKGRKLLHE

[2] = target: MOZ PHD1/2 fingers (aa 207-318) (human, UniProt Q92794 207-318); assay: other fluorescence titration
Sequence of MOZ PHD1/2 fingers (aa 207-318) (Q92794 207-318): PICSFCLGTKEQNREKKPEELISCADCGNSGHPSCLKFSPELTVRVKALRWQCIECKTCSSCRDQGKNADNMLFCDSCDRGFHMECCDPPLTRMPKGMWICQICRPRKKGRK

[3] = target: T1, MORF PHD1/2 fingers (aa 211-329); assay: other fluorescence titration

- fold stronger than H3K4me3 [1]: ~4 fold
Binder: ARTK(Me3)QTARK(Ac)STG [histone H3 peptide trimethylated at Lys4 and acetylated at Lys9]

- Kd [2]: 1.5 µM
- Kd [3]: 1.4 µM
Binder: ARTKQTARKSTG (acetyl-lysine at 9) [histone H3 peptide acetylated at Lys9 (length not stated for the experiment)]

Further lines, the binder ahead of its results:

Binder: ARTKQTARKSTG (peptide, UniProt P68431 2-13, looked up, acetyl-lysine at 9) [histone H3 peptide acetylated at Lys9, amino acids 1-12]
- binding result [1]: binds

Binder: ARTKQTARKSTG (peptide, UniProt P68431 2-13, looked up) [unmodified histone H3 peptide, amino acids 1-12]
- binding result [1]: binds

Binder: ARTK(Me3)QTARKSTG [histone H3 peptide trimethylated at Lys4]
- Kd [1]: ~2000 µM

Reference: article PMC3502708 (Journal of molecular biology, 2012)
